{"source": "paper PMC5778602", "assay_in_all_cases": "ITC", "key": {"[1]": {"molecular_target": "T1, CstF-50;CstF-77ΔN;CstF-64RH (Homo sapiens;Homo sapiens;Homo sapiens, UniProt Q05048;Q12996;P33240 1-431;241-717;1-199, |del1-240|)", "T1 sequence 1": "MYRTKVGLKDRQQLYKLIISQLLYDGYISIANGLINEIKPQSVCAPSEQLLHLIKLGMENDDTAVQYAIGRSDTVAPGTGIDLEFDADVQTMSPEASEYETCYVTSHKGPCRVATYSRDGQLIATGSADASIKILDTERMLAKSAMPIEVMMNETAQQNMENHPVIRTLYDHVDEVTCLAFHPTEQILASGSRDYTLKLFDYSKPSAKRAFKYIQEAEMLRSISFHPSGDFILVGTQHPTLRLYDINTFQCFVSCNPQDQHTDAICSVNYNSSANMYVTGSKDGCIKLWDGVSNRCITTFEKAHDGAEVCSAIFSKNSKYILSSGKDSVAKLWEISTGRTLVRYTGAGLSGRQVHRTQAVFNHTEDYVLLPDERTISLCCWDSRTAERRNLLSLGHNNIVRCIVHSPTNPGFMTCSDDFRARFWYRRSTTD", "T1 sequence 2": "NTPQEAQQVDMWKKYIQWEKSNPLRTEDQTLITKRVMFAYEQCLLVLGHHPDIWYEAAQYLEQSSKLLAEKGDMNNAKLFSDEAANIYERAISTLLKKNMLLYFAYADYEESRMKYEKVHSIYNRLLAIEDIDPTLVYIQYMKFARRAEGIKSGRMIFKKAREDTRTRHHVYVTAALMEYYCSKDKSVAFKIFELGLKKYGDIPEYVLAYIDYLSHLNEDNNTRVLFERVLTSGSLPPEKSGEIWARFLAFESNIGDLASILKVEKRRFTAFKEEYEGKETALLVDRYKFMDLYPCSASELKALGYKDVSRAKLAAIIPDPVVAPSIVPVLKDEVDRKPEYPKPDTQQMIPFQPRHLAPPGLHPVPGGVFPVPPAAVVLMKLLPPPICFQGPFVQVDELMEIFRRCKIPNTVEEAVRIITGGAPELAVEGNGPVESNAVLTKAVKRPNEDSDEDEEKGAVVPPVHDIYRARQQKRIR", "T1 sequence 3": "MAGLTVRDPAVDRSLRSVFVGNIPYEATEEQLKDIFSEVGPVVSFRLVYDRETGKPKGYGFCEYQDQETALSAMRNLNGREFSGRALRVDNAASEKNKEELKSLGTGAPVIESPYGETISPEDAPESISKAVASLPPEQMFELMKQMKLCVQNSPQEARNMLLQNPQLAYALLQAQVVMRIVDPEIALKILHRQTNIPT"}, "CstF-77ΔN;CstF-64RH [2]": {"molecular_target": "T2, CstF-77ΔN;CstF-64RH (Homo sapiens;Homo sapiens, UniProt Q12996;P33240 241-717;1-199, del1-240|)", "T2 sequence 1": "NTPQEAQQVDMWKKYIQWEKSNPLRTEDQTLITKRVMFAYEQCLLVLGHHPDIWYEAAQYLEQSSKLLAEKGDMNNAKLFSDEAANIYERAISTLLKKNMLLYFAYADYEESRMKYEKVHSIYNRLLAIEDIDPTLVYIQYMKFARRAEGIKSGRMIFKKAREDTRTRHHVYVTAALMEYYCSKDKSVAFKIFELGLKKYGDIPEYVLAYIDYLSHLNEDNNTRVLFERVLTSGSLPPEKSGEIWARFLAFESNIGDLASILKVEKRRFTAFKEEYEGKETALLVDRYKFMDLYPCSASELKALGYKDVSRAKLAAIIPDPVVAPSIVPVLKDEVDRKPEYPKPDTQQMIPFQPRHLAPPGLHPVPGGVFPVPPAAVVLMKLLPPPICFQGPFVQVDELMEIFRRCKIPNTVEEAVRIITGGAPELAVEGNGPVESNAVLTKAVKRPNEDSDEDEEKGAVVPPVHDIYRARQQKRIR", "T2 sequence 2": "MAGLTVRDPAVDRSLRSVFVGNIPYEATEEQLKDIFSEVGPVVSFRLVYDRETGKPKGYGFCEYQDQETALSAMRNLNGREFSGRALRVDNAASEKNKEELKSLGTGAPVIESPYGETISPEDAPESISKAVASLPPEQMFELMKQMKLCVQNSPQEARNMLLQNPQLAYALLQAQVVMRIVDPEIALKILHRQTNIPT"}, "CstF-64 RRM": {"molecular_target": "T3, CstF-64 RRM (Homo sapiens, UniProt P33240 16-94)", "T3 sequence": "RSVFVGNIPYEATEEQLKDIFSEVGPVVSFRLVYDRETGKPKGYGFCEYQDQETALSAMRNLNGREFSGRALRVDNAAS"}, "[3]": {"molecular_target": "T1, CstF-50;CstF-77ΔN;CstF-64RH", "remark": "listed apart in the source"}, "CstF-77ΔN;CstF-64RH [4]": {"molecular_target": "T2, CstF-77ΔN;CstF-64RH", "remark": "listed apart in the source"}, "CstF-77ΔN;CstF-64RH [5]": {"molecular_target": "T2, CstF-77ΔN;CstF-64RH", "remark": "listed apart in the source"}, "[6]": {"molecular_target": "T1, CstF-50;CstF-77ΔN;CstF-64RH", "remark": "listed apart in the source"}, "[7]": {"molecular_target": "T1, CstF-50;CstF-77ΔN;CstF-64RH", "remark": "listed apart in the source"}}, "note": "Read-outs that look alike come from different tables or passages of the source.", "data": [{"binder": "GUGUGUGU (ssRNA)", "note": "[GU8]", "values": [{"measurement": "binding signal", "setting": "[1]", "result": "~2.5", "unit": "fold tighter than GU6"}]}, {"binder": "GUGUGACCCUUUUU (ssRNA)", "note": "[UUUUU-containing RNA]", "values": [{"measurement": "Kd", "setting": "CstF-77ΔN;CstF-64RH [2]", "result": "~3700", "unit": "nM"}]}, {"binder": "GUGUGUGUGUGUGU (ssRNA)", "note": "[GU14]", "values": [{"measurement": "Kd", "setting": "CstF-64 RRM", "result": "~2500", "unit": "nM"}, {"measurement": "Kd", "setting": "[3]", "result": "~120", "unit": "nM"}, {"measurement": "Kd", "setting": "CstF-77ΔN;CstF-64RH [4]", "result": "~160", "unit": "nM"}]}, {"binder": "GUGUGUGUGU (ssRNA)", "note": "[GU10]", "values": [{"measurement": "binding result", "setting": "CstF-77ΔN;CstF-64RH [5]", "result": "binds"}, {"measurement": "Kd", "setting": "[6]", "result": "~500", "unit": "nM"}]}, {"binder": "ACACACACACACAC (ssRNA)", "note": "[AC14]", "values": [{"measurement": "binding result", "setting": "[7]", "result": "no binding"}]}]}
